We go through one molecule from patent US20230091315A1 (CISBIO BIOASSAYS, published 2023).

The target in experiment [1] is T1, human Gαq fused in its N-terminal part with the tags Twin-Strep-tag and FLAG, overexpressed in HEK293 cells (human, UniProt P50148 1-359).
T1 construct: not shown: N-terminal Twin-Strep-tag and FLAG tags
T1 sequence (looked up): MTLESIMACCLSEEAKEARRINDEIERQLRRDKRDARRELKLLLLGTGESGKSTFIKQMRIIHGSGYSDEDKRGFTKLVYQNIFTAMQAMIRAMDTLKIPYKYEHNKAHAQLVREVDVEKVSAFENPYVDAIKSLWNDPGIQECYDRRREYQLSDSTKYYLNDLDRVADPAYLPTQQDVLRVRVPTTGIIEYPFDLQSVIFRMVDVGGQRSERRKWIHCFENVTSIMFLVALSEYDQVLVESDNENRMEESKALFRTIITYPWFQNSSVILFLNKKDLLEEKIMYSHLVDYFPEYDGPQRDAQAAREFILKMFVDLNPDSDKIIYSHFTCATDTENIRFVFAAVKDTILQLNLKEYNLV
The experiment can be described thus: HTRF on HEK293 cells overexpressing the TST-Flag-tagged Gα: antibody-d2 (10 nM) + anti-Twin-Strep-tag-Lumi4 Tb, in buffer, GDP 10 µM or GTPγS 10 µM. (In general: Time-resolved FRET reads energy transfer from a long-lived donor to a nearby acceptor.)

The target of experiment [2] is T2, human Gα13 fused in its N-terminal part with the tags Twin-Strep-tag and FLAG, overexpressed in HEK293 cells (human, UniProt Q14344 1-377).
T2 construct: not shown: N-terminal Twin-Strep-tag and FLAG tags
T2 sequence (looked up): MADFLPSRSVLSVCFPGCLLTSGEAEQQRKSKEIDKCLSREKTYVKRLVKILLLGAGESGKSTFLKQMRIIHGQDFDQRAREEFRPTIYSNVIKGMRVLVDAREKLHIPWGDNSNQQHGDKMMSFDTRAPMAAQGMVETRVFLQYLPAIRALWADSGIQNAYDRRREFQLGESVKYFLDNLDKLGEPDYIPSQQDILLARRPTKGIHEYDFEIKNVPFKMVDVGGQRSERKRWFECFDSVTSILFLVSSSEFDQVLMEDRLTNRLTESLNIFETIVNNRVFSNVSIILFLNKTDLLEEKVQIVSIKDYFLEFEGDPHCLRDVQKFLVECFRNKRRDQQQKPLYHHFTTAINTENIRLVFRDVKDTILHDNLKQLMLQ
Described as above.

Experiment [3] concerns the target T3, human Gα12 fused in its N-terminal part with the tags Twin-Strep-tag and FLAG, overexpressed in HEK293 cells (human, UniProt Q03113 1-381).
T3 construct: not shown: N-terminal Twin-Strep-tag and FLAG tags
T3 sequence (looked up): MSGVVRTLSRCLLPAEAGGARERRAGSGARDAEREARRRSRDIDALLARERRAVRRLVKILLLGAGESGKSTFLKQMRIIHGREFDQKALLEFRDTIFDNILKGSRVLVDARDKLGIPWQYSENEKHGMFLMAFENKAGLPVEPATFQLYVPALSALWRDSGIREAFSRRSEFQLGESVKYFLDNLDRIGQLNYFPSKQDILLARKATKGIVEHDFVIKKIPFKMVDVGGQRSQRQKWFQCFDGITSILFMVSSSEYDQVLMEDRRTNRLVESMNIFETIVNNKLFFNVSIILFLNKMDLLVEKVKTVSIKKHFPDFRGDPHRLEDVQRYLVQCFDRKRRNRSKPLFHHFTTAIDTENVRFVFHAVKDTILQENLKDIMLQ
The description is as above.

For experiment [4], the target named is T4, human Gαz fused in its N-terminal part with the tags Twin-Strep-tag and FLAG, overexpressed in HEK293 cells (human, UniProt P19086 1-355).
T4 construct: not shown: N-terminal Twin-Strep-tag and FLAG tags
The experiment can be described thus: HTRF on HEK293 cells overexpressing the TST-Flag-tagged Gα: antibody-d2 (10 nM) + anti-Twin-Strep-tag-Lumi4 Tb (0.5 nM), in buffer, GDP 10 µM or GTPγS 10 µM.

The target of experiment [5] is T5, human Gαi2 fused in its N-terminal part with the tags Twin-Strep-tag and FLAG, overexpressed in HEK293 cells (human, UniProt P04899 1-355).
T5 construct: not shown: N-terminal Twin-Strep-tag and FLAG tags
The description is as above.

The target in experiment [6] is T6, human Gαi3 fused in its N-terminal part with the tags Twin-Strep-tag and FLAG, overexpressed in HEK293 cells (human, UniProt P08754 1-354).
T6 construct: not shown: N-terminal Twin-Strep-tag and FLAG tags
Described as above.

T5 sequence (P04899 whole entry, the tested form may be a part): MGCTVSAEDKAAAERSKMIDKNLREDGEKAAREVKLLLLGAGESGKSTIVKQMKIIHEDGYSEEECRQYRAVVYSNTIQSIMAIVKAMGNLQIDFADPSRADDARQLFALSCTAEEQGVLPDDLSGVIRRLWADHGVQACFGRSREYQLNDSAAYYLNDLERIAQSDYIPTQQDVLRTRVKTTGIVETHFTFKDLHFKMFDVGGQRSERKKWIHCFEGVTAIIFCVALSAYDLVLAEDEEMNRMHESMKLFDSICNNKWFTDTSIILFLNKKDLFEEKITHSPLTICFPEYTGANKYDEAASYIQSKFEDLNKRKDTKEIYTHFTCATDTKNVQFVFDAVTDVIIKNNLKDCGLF
T4 sequence (P19086 whole entry, the tested form may be a part): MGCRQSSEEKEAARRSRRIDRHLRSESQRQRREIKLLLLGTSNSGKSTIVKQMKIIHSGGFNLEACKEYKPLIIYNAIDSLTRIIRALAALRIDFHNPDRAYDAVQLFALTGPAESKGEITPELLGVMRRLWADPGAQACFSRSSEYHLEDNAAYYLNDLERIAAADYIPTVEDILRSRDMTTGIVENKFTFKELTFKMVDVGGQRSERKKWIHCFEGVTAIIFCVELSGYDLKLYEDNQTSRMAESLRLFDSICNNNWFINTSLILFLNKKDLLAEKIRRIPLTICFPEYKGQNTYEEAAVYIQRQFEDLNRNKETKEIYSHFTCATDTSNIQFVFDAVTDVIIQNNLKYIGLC
T6 sequence (P08754 whole entry, the tested form may be a part): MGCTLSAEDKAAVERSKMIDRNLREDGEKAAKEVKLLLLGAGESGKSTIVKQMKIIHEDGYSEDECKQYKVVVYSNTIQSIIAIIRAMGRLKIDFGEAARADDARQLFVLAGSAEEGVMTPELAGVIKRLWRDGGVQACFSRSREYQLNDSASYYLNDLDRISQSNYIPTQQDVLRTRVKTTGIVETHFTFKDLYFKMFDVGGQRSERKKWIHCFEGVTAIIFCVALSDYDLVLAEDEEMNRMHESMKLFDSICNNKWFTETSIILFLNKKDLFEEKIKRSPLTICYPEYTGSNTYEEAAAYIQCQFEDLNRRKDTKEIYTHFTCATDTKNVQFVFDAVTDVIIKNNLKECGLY

B1: antibody DSV36S (antibody, V domains shown)
VH: EVQLQQSGAELVRPGALVKLSCKASGFNIKDYYMHWVKQRPEQGLEWIGWIDPENGNTIYDPKFQGKASITADTSSNTAYLQLSSLTSEDTAVYYCTRGGGYYSDWYFDVWGAGTTVTVSS
VL: QIVLTQSPAIMSASPGEKVTMTCSASSSVSYMHWYQQKSGTSPKRWIYDTSKLASGVPARFSGSGSGTSYSLTISSMEAEDAATYYCQQWSSNPPITFGAGTKLELK
notes: Used unlabeled or labeled with d2 (acceptor) or Lumi4Tb (donor); also called DSV36S-d2; DSV36S-Lumi4Tb
As for B1, the binding result is listed as “no binding (tested: 10 nM)” in experiment [1]; “no binding (tested: 10 nM)” in experiment [2]; “no binding (tested: 10 nM)” in experiment [3]; “binds” in experiment [4]; “binds” in experiment [5]; “binds” in experiment [6].
